Assay results reported in patent US20220143136A1, “USE OF ANNEXINS IN PREVENTING AND TREATING MUSCLE MEMBRANE INJURY” (NORTHWESTERN UNIVERSITY, priority 2018, published 2022).

B1: annexin A6: annexin A6 with carboxyl-terminal turboGFP or tdTomato tag, expressed from plasmid electroporated into myofibers (protein, UniProt P14824 2-673, looked up)
Annexin A6: AKIAQGAMYRGSVHDFPEFDANQDAEALYTAMKGFGSDKESILELITSRSNKQRQEICQNYKSLYGKDLIEDLKYELTGKFERLIVNLMRPLAYCDAKEIKDAISGVGTDEKCLIEILASRTNEQMHQLVAAYKDAYERDLESDIIGDTSGHFQKMLVVLLQGTRENDDVVSEDLVQQDVQDLYEAGELKWGTDEAQFIYILGNRSKQHLRLVFDEYLKTTGKPIEASIRGELSGDFEKLMLAVVKCIRSTPEYFAERLFKAMKGLGTRDNTLIRIMVSRSELDMLDIREIFRTKYEKSLYSMIKNDTSGEYKKALLKLCGGDDDAAGQFFPEAAQVAYQMWELSAVSRVELKGTVCAANDFNPDADAKALRKAMKGIGTDEATIIDIVTHRSNAQRQQIRQTFKSHFGRDLMADLKSEISGDLARLILGLMMPPAHYDAKQLKKAMEGAGTDEKTLIEILATRTNAEIRAINEAYKEDYHKSLEDALSSDTSGHFRRILISLATGNREEGGENRDQAQEDAQVAAEILEIADTPSGDKTSLETRFMTVLCTRSYPHLRRVFQEFIKKTNYDIEHVIKKEMSGDVKDAFVAIVQSVKNKPLFFADKLYKSMKGAGTDEKTLTRVMVSRSEIDLLNIRREFIEKYDKSLHQAIEGDTSGDFMKALLALCGGED
modifications: C-terminal turboGFP or tdTomato tag
notes: annexin A6 with carboxyl-terminal turboGFP or tdTomato tag, expressed from plasmid electroporated into myofibers
B2: recombinant annexin A6: recombinant human annexin A6 protein with C-terminal HIS tag (5186-A6-050, R&D systems); mouse protein from Northwestern core in one cohort (protein, UniProt P08133 2-673, looked up)
Annexin A6: AKPAQGAKYRGSIHDFPGFDPNQDAEALYTAMKGFGSDKEAILDIITSRSNRQRQEVCQSYKSLYGKDLIADLKYELTGKFERLIVGLMRPPAYCDAKEIKDAISGIGTDEKCLIEILASRTNEQMHQLVAAYKDAYERDLEADIIGDTSGHFQKMLVVLLQGTREEDDVVSEDLVQQDVQDLYEAGELKWGTDEAQFIYILGNRSKQHLRLVFDEYLKTTGKPIEASIRGELSGDFEKLMLAVVKCIRSTPEYFAERLFKAMKGLGTRDNTLIRIMVSRSELDMLDIREIFRTKYEKSLYSMIKNDTSGEYKKTLLKLSGGDDDAAGQFFPEAAQVAYQMWELSAVARVELKGTVRPANDFNPDADAKALRKAMKGLGTDEDTIIDIITHRSNVQRQQIRQTFKSHFGRDLMTDLKSEISGDLARLILGLMMPPAHYDAKQLKKAMEGAGTDEKALIEILATRTNAEIRAINEAYKEDYHKSLEDALSSDTSGHFRRILISLATGHREEGGENLDQAREDAQVAAEILEIADTPSGDKTSLETRFMTILCTRSYPHLRRVFQEFIKMTNYDVEHTIKKEMSGDVRDAFVAIVQSVKNKPLFFADKLYKSMKGAGTDEKTLTRIMVSRSEIDLLNIRREFIEKYDKSLHQAIEGDTSGDFLKALLALCGGED
modifications: C-terminal His tag
notes: recombinant human annexin A6 protein with C-terminal HIS tag (5186-A6-050, R&D systems); mouse protein from Northwestern core in one cohort

What was measured:
Isolated FDB fibers = assay: Single cell Ca2+ and shortening measurements; assay type: cell-based, mouse; details: annexin A6 overexpression vs control fibers
Procedure: Single cell Ca^2+ and shortening measurements. Isolated FDB fibers were plated on laminin coated glass-bottomed 35 mm dishes for one hour and then cultured overnight in DMEM with 10% FBS and 1% penicillin/streptomycin at 37° C. in a 10% CO2 incubator. One hour prior to data acquisition, the medium was removed and cells were incubated in Tyrode buffer (119 mM NaCl, 5 mM KCl, 25 mM HEPES, 2 mM CaCl2, 2 mM MgCl2) with 10 μM Indo-1 AM (TefLabs) for 1 hour at 37° C. in a 10% CO2 incubator. Dishes were then filled with Tyrode buffer, mounted on a custom stage and platinum pacing electrodes were inserted into the dish. Stimulation was elicited using a 701C high-powered stimulator controlled by the 950A software (Aurora Scientific). Stimulation was performed at 40 and 80 Hz, 5 ms pulse width, 100 ms duration. Ratiometric Ca^2+ signals were collected with two photomultiplier tubes and a FluoroDaq controller. Video sarcomere length was recorded with a high-speed camera and fast Fourier transform using the Aurora Scientific 900B-VSL system (Aurora, Ontario). Ten transients were collected over 20 seconds and averaged together per cell per frequency.

wildtype myofibers = assay: Laser injury FM 4-64 uptake, E coli versus HEK cell produced rANXA6; assay type: cell-based, mouse; details: 13 μg/ml and 130 μg/ml; vs BSA control
Procedure: Myofiber isolation, laser injury, and dye measurement. For recombinant myofibers studies, myofibers were isolated from wildtype mice. Myofibers were incubated in Ringer's media with 13 μg/ml or 130 μg/ml human recombinant annexin, E coli or HEK cell produced. Bovine serum albumin (BSA) was used as a negative control. FM 4-64 ([…]) was added to the myofibers just prior to imaging. Fibers were subjected to laser-induced damage at room temperature using the Nikon A1R-MP multiphoton microscope. Imaging was performed using a 25×1.1 NA objective directed by the NIS-Elements AR imaging software. FM 4-64 was excited using a 920 nm wavelength laser and emission wavelengths of 575 nm and 629 nm were collected, respectively. To induce laser damage on isolated myofibers, a diffraction limited spot (diameter approximately 410 nm) was created on the lateral membrane of the myofiber using a 920 nm wavelength laser at 10-15% laser power for 1 second. FM 4-64 area was measured using FIJI from a single slice near the middle of the z-stack. Myofiber quality control was based on a number of characteristics including using adherent myofibers with intact sarcomere structure. Myofibers appeared devoid of tears or ruptures induced during the isolation protocol. The region of the myofiber selected for damage was linear and not located on a nucleus or neuromuscular junction.
Statistical analyses were performed with Prism (Graphpad, La Jolla, Calif.). Comparisons relied on ANOVA (1way ANOVA for 1 variable). P-values of less than or equal to 0.05 were considered significant. Error bars represent +/−standard error of the mean (SEM).

Sgcg-null mice [1] = assay: Anti-HIS immunofluorescence localization after systemic injection, Sgcg-null versus wildtype; assay type: in vivo, mouse
Procedure: Immunofluorescence microscopy. Mice were systemically injected with recombinant annexin A6 with a C-terminal HIS tag (R&D). Muscle was harvested and flash frozen. Muscle sections (10 μm thick) from the center of frozen-embedded muscles were collected on the cryostat (chamber, −20° C.; sample, −15° C.; catalog number CM1950; Leica, Wetzlar, Germany) for immunostaining. Tissues were fixed with 4% paraformaldehyde for 10 minutes on ice. Block and permeabilization were with 0.1% Triton (catalog number X-100; Sigma-Aldrich), 10% fetal bovine serum, and PBS for 60 minutes. For laminin detection, anti-laminin antibody was used at a dilution of 1:100 and for HIS detection, anti-HIS antibody was used at 1:100 overnight at 4° C. Hoechst labelled nuclei. Sections were PBS rinsed, incubated with secondary antibody for 1 hour, PBS rinsed, and mounted. Imaging was performed using a Zeiss Axio Observer A1 microscope (Zeiss, Oberkochen, Germany).

[2] = system: tibialis anterior muscles of wildtype mice; assay: Cardiotoxin injection and histology 7 days post injury; assay type: in vivo, mouse; details: 1 mg/kg retro-orbital 2 hours before cardiotoxin, vs BSA control
Procedure: Cardiotoxin injection and histology. […] Two hours post injection mice were sedated for a second time. While sedated the tibialis anterior muscles were injected along the midline with 10 μm cardiotoxin in 20 ul of PBS as described above. Seven days post injection, the muscle was isolated and frozen. Muscle sections were acquired every 100 μm from muscle tendon into the mid belly, fixed and stained with hematoxylin and eosin. Imaging was performed using a Zeiss Axio Observer A1 microscope (Zeiss, Oberkochen, Germany), using a 10× objective. ZEN software (Zeiss, Jena, Germany) was used for acquiring tiled images. Percent injury area was calculated as the average injured area (containing internal myonuclei) divided by total muscle area of 3 sections per muscle. One muscle from each group was excluded due to technical error in tissue processing. Damage area was measured using FIJI (NIH).

Sgcg-null mice [3] = assay: Chronic injury, short-term chronic dosing and serum biomarker analysis; assay type: in vivo, mouse; details: for serum creatine kinase (CK) at day 14: 1 mg/kg once every three days for 14 days, vs PBS control
Procedure: Chronic Injury and biomarker analysis. […] Mice were injected once every 3 days for a period of 12 days. Serum was acquired as previously described (Demonbreun et al 2016a). Serum CK was analyzed for each mouse using the EnzyChrom Creatine Kinase Assay (catalog ECPK-100, BioAssay Systems) following the manufacturer's instructions. Lactate dehydrogenase was analyzed for each mouse using (LDH cytotoxicity kit MK401, Takara) following the manufacturer's instructions.
Serum collection and CK analysis.
Short-term chronic dosing regimen. […] An additional cohort of Sgcg-null mice had blood drawn as described above immediately prior to the first protein injection. Then, 1 mg/kg recombinant annexin A6 or annexin A2 (both produced by Northwestern's Protein Production Core) was injected into the right retro-orbital cavity of sedated mice, once every 3 days for a total of 5 injections and then blood drawn on day 14 post initial injection.

[4] = 1 mg/kg retro-orbital once every 3 days for 12 days, vs control

Molecule	Ca2+ cycling (Indo-1) (Isolated FDB fibers; 40 or 80 Hz stimulation)	unloaded cell shortening (Isolated FDB fibers)	FM 4-64 dye uptake after laser injury (wildtype myofibers)	anti-HIS immunofluorescence at the muscle membrane (Sgcg-null mice [1]; Sgcg-null (LGMD2C) muscle)	anti-HIS immunofluorescence at the muscle membrane (Sgcg-null mice [1]; Sgcg-null (LGMD2C) muscle, listed as rANXA6)	anti-HIS immunofluorescence at the muscle membrane (Sgcg-null mice [1]; uninjured wildtype muscle)	percentage of injured muscle (internal myonuclei), histology [2]	percentage of injured muscle (internal myonuclei), histology ([2]; listed as rANXA6)	serum CK fold change post/pretreatment (Day 14/Day 0) (Sgcg-null mice [3]; 1 mg/kg every 3 days for 14 days, compared to recombinant annexin A2, proteins from Northwestern's Protein Production Core)	serum creatine kinase (CK) at day 14 (Sgcg-null mice [3])	serum creatine kinase (CK) at day 14 (Sgcg-null mice [3]; listed as rANXA6)	serum creatine kinase (CK) (Sgcg-null mice [3]; [4])	serum lactate dehydrogenase (LDH) (Sgcg-null mice [3]; [4])	histology of gastrocnemius/soleus muscle (Sgcg-null mice [3]; 14-day dosing, vs PBS)
B1	no differences	unaffected												
B2			reduction	localized to the muscle membrane	increased	minimal	reduced	reduction	significantly reduced	significantly decreased	lower	reduced	reduced	qualitatively less injury
